What all share (assay): other fluorescence titration; intrinsic Trp fluorescence quenching, plate-based (96-well), 0-750 µM peptide added to 8 µM enzyme.Ni(II) (1:2), anaerobic preparation, 10 min at 25 °C, 50 mM Tris pH 7.5, 0.4 M NaCl; λex/λem 280/350 nm; fit to one-site specific binding with or without Hill slope
Holding throughout (details): both partners purified

For experiment [1], the target named is T1, AtRAP2.12_(2-15) 14-mer peptide (Arabidopsis thaliana, UniProt Q9SSA8 2-15).
T1 construct: RELATED TO AP-2.12 (RAP2.12), Arabidopsis thaliana ERFVII, Cys-initiating residues 2-15; also called RAP2_(2-15); source: synthetic peptide (GL Biochem, China)

The target in experiment [2] is T2, AtHRE1_(2-15) 14-mer peptide (Arabidopsis thaliana, UniProt Q8H0T5 2-15).
T2 construct: HRE1, Arabidopsis thaliana ERFVII, Cys-initiating residues 2-15; source: synthetic peptide (GL Biochem, China)

In experiment [3] the target is T3, AtZPR2_(2-15) 14-mer peptide (Arabidopsis thaliana, UniProt Q9LZX5 2-15).
T3 construct: Little Zipper 2 (ZPR2), Arabidopsis thaliana, Cys-initiating residues 2-15; source: synthetic peptide (GL Biochem, China)

For experiment [4], the target named is T4, AtVRN2_(2-15) 14-mer peptide (Arabidopsis thaliana, UniProt Q8W5B1 2-15).
T4 construct: Polycomb group protein Vernalisation 2 (VRN2), Arabidopsis thaliana, Cys-initiating residues 2-15; source: synthetic peptide (GL Biochem, China)

B1: Arabidopsis thaliana Plant Cysteine Oxidase 5, Ni(II)-substituted (AtPCO5.Ni(II)) (enzyme)
chain: not shown
notes: Plant Cysteine Oxidase 5 (AtPCO5), Arabidopsis thaliana; Active-site Fe(II) removed and replaced with Ni(II) (enzyme:metal 1:2)
As a reminder, the Kd is a measure of binding affinity in units of concentration. Read a low Kd as higher affinity. As to B1, the Kd was found to be 258 ± 14.3 µM in experiment [1], 223 ± 10.3 µM in experiment [2], 692 ± 513 µM in experiment [3] and 107 ± 29.7 µM in experiment [4].
